First the molecules themselves.
B1: Ac-Nle-c(Asp-His-D-Phe-Arg-Trp-β-Ala-Lys)-NH2 (peptide)
peptide: Ac-[Nle]DH[dF]RW[βAla]K-NH2
modifications: lactam 2-8
SMILES: CCCC[C@H](NC(C)=O)C(=O)N[C@H]1CC(=O)NCCCC[C@@H](C(N)=O)NC(=O)CCNC(=O)[C@H](Cc2c[nH]c3ccccc23)NC(=O)[C@H](CCCNC(=N)N)NC(=O)[C@@H](Cc2ccccc2)NC(=O)[C@H](Cc2c[nH]cn2)NC1=O
B2: Ac-Nle-c(Cys-D-Ala-His-D-Phe-Arg-Trp-Apn-Cys)-NH2 (peptide)
peptide: Ac-[Nle]C[dA]H[dF]RW[Ava]C-NH2
modifications: disulfide 2-9
SMILES: CCCC[C@H](NC(C)=O)C(=O)N[C@H]1CSSC[C@@H](C(N)=O)NC(=O)CCCCNC(=O)[C@H](Cc2c[nH]c3ccccc23)NC(=O)[C@H](CCCNC(=N)N)NC(=O)[C@@H](Cc2ccccc2)NC(=O)[C@H](Cc2c[nH]cn2)NC(=O)[C@@H](C)NC1=O
B3: Ac-hCha-c(Asp-His-D-Phe-Arg-Trp-Gaba-Lys)-NH2 (peptide)
peptide: Ac-[hCha]DH[dF]RW[GABA]K-NH2
modifications: lactam 2-8
SMILES: CC(=O)N[C@@H](CCC1CCCCC1)C(=O)N[C@H]1CC(=O)NCCCC[C@@H](C(N)=O)NC(=O)CCCNC(=O)[C@H](Cc2c[nH]c3ccccc23)NC(=O)[C@H](CCCNC(=N)N)NC(=O)[C@@H](Cc2ccccc2)NC(=O)[C@H](Cc2c[nH]cn2)NC1=O

“And” between values parts separate entries of the source, which are not always exact repeats. Equal values may be shown once. Bridge positions count the residues as written; N and C are the ends. Square brackets hold non-standard residues; d marks the D form. hCha = N[C@@H](CCC1CCCCC1)C(=O)O; dChg = N[C@@H](C(=O)O)C1CCCCC1; dTle = CC(C)(C)[C@@H](N)C(=O)O; Chg = N[C@H](C(=O)O)C1CCCCC1; Nle = CCCC[C@H](N)C(=O)O; Ava = NCCCCC(=O)O; GABA = NCCCC(=O)O; βAla = NCCC(=O)O

T2 sequence (Q01726 whole entry): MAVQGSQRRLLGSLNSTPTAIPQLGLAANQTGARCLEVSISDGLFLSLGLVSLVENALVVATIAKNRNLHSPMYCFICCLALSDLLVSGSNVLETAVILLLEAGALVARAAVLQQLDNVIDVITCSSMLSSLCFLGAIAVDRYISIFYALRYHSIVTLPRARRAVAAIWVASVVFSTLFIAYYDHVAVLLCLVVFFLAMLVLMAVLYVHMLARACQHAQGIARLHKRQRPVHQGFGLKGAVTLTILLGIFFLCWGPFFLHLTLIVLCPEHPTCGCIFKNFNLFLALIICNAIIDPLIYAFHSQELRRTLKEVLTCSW
T3 sequence (P33032 whole entry): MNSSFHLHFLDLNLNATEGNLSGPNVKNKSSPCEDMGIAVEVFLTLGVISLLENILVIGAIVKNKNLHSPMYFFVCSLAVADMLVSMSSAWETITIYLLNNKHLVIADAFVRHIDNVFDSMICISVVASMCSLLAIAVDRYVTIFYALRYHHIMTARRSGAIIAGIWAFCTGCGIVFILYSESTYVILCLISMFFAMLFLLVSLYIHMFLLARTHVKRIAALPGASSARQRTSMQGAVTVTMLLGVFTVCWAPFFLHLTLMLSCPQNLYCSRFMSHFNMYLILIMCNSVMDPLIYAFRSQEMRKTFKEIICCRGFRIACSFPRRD

The target in the first test is T1, hMC4-R (human, UniProt P32245 1-332).
T1 construct: whole, on cells; Assayed as membranes of CHO-K1 cells expressing the receptor; also called hMC-R receptor subtype 4; melanocortin-4 (MC4-R)
T1 sequence (P32245 whole entry): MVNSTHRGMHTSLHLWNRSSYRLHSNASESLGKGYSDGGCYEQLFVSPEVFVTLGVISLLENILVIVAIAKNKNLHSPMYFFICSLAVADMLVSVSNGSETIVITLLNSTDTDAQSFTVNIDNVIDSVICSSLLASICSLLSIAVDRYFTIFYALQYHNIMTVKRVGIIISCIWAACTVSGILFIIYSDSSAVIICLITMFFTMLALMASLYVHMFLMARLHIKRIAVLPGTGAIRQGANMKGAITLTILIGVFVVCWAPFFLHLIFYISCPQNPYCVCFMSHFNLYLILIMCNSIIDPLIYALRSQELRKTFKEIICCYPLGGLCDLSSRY
The test is described as follows: competition with [125I]-NDP-α-MSH, CHO-K1 membranes. The method, then: (§1) Cellular membranes used for the in vitro receptor binding assays were obtained from transgenic CHO-K1 cells stably expressing hMC-R receptor subtypes 1, 3, 4 or 5. […] The pellets were resuspended in the same buffer and centrifuged at 50,000 g for 10 minutes at approximately 4° C. The washed pellets containing the cellular membranes were stored at approximately −80° C.
(§2) Competitive inhibition of [¹²⁵I](Tyr²)-(Nle⁴-D-Phe⁷)α-MSH ([¹²⁵I]-NDP-α-MSH, Amersham Biosciences®) binding was carried out in polypropylene 96 well plates. Cell membranes (1-10 μg protein/well) prepared as described above were incubated in 50 mM Tris-HCl at pH 7.4 containing 0.2% bovine serum albumin (BSA), 5 mM MgCl₂, 1 mM CaCl₂ and 0.1 mg/mL bacitracin, with increasing concentrations of the test compound and 0.1-0.3 nM […] for approximately 90-120 minutes at approximately 37° C. Bound [¹²⁵I]-NDP-α-MSH ligand was separated from free [¹²⁵I]-NDP-α-MSH by filtration through GF/C glass fiber filter plates (Unifilter®; Packard) presoaked with 0.1% (w/v) polyethylenimine (PEI), using a Packard Filtermate® harvester. Filters were washed three times with 50 mM Tris-HCl at pH 7.4 at a temperature of approximately 0-4° C. and then assayed for radioactivity using a Packard Topcount® scintillation counter. Binding data were analyzed by computer-assisted non-linear regression analysis (XL fit; IDBS).
As usually defined, the Ki is the dissociation constant of the complex between target and ligand, obtained from inhibition or displacement. A higher Ki goes with weaker binding. For Ac-[Nle]C[dTle]H[dF]RWC-NH2 (disulfide 2-8) [Ac-Nle-c(Cys-D-Tle-His-D-Phe-Arg-Trp-Cys)-NH2], the affinity, expressed as Ki, was 11.2 nM.
Molecule Ac-RDH[dF]RWAK-NH2 (lactam 2-8) [Ac-Arg-c(Asp-His-D-Phe-Arg-Trp-Ala-Lys)-NH2] came in with an inhibition constant Ki of 1.01 nM.
Same read-out and setting: then Ac-[Nle]DH[dF]RW[GABA]K-NH2 (lactam 2-8) [Ac-Nle-c(Asp-His-D-Phe-Arg-Trp-Gaba-Lys)-NH2], with 1.04 nM; and B1, with 0.617 nM; and B2, with 7.58 nM.
The same measure, in the same setting: with B3 the figure was 56 nM; with Ac-[Nle]C[dA]H[dF]RW[GABA]C-NH2 (disulfide 2-9) [Ac-Nle-c(Cys-D-Ala-His-D-Phe-Arg-Trp-Gaba-Cys)-NH2], 3.76 nM and 3.12 nM; with Ac-[Nle]C[dA]H[dF]RW[βAla]C-NH2 (disulfide 2-9) [Ac-Nle-c(Cys-D-Ala-His-D-Phe-Arg-Trp-β-Ala-Cys)-NH2], 5.55 nM.
On the same count and under the same terms, with Ac-[Chg]DH[dF]RW[GABA]K-NH2 (lactam 2-8) [Ac-Chg-c(Asp-His-D-Phe-Arg-Trp-Gaba-Lys)-NH2] the figure was 22.5 nM.
Molecule Ac-[dChg]DH[dF]RW[GABA]K-NH2 (lactam 2-8) [Ac-D-Chg-c(Asp-His-D-Phe-Arg-Trp-Gaba-Lys)-NH2] registered a Ki of 2.99 nM.

The next test has as its target T2, hMC1-R (human, UniProt Q01726 1-317).
T2 construct: whole, on cells; Assayed as membranes of CHO-K1 cells expressing the receptor; also called hMC-R receptor subtype 1; melanocyte-specific receptor (MC1-R)
Described as above. The method, then: as §1, §2
In turn, Ac-[Nle]C[dTle]H[dF]RWC-NH2 (disulfide 2-8) [Ac-Nle-c(Cys-D-Tle-His-D-Phe-Arg-Trp-Cys)-NH2] showed an inhibition constant Ki of 12 nM.
The same measure, in the same setting: then Ac-RDH[dF]RWAK-NH2 (lactam 2-8) [Ac-Arg-c(Asp-His-D-Phe-Arg-Trp-Ala-Lys)-NH2], with 0.68 nM; and Ac-[Nle]DH[dF]RW[GABA]K-NH2 (lactam 2-8) [Ac-Nle-c(Asp-His-D-Phe-Arg-Trp-Gaba-Lys)-NH2], with 0.0506 nM.
On the same count and under the same terms, then B1, with 0.0996 nM.
B2 had a Ki of 1.1 nM. Compared with the last molecule, the Ki is about 11-fold higher.
Regarding B3, the Ki came out at 0.721 nM.
Still for that read-out and setting: then Ac-[Nle]C[dA]H[dF]RW[GABA]C-NH2 (disulfide 2-9) [Ac-Nle-c(Cys-D-Ala-His-D-Phe-Arg-Trp-Gaba-Cys)-NH2], with 0.848 nM and 0.536 nM; and Ac-[Nle]C[dA]H[dF]RW[βAla]C-NH2 (disulfide 2-9) [Ac-Nle-c(Cys-D-Ala-His-D-Phe-Arg-Trp-β-Ala-Cys)-NH2], with 0.995 nM and 1 nM.
The same measure, in the same setting: then Ac-[Chg]DH[dF]RW[GABA]K-NH2 (lactam 2-8) [Ac-Chg-c(Asp-His-D-Phe-Arg-Trp-Gaba-Lys)-NH2], with 0.884 nM; and Ac-[dChg]DH[dF]RW[GABA]K-NH2 (lactam 2-8) [Ac-D-Chg-c(Asp-His-D-Phe-Arg-Trp-Gaba-Lys)-NH2], with 0.227 nM.

The next test addresses T3, hMC5-R (human, UniProt P33032 1-325).
T3 construct: whole, on cells; Assayed as membranes of CHO-K1 cells expressing the receptor; also called hMC-R receptor subtype 5; melanocortin-5 receptor (MC5-R)
The test is described as above. The method, then:
as §1, §2
The molecule Ac-[Nle]C[dTle]H[dF]RWC-NH2 (disulfide 2-8) [Ac-Nle-c(Cys-D-Tle-His-D-Phe-Arg-Trp-Cys)-NH2] yielded an inhibition constant Ki of 40 nM.
Consider Ac-RDH[dF]RWAK-NH2 (lactam 2-8) [Ac-Arg-c(Asp-His-D-Phe-Arg-Trp-Ala-Lys)-NH2], for which affinity was put at a Ki of 783 nM.
Ac-[Nle]DH[dF]RW[GABA]K-NH2 (lactam 2-8) [Ac-Nle-c(Asp-His-D-Phe-Arg-Trp-Gaba-Lys)-NH2] gave an inhibitory constant (Ki) of 16.3 nM.
The molecule B1 had a Ki of 10.9 nM.
Turning to B2, the Ki is 859 nM.
Still for that read-out and setting: with B3 the figure was 747 nM; with Ac-[Nle]C[dA]H[dF]RW[GABA]C-NH2 (disulfide 2-9) [Ac-Nle-c(Cys-D-Ala-His-D-Phe-Arg-Trp-Gaba-Cys)-NH2], 956 nM and 358 nM; with Ac-[Nle]C[dA]H[dF]RW[βAla]C-NH2 (disulfide 2-9) [Ac-Nle-c(Cys-D-Ala-His-D-Phe-Arg-Trp-β-Ala-Cys)-NH2], 766 nM and 496 nM.
On the same count and under the same terms, then Ac-[Chg]DH[dF]RW[GABA]K-NH2 (lactam 2-8) [Ac-Chg-c(Asp-His-D-Phe-Arg-Trp-Gaba-Lys)-NH2], with 609 nM; and Ac-[dChg]DH[dF]RW[GABA]K-NH2 (lactam 2-8) [Ac-D-Chg-c(Asp-His-D-Phe-Arg-Trp-Gaba-Lys)-NH2], with 164 nM.

The target of the next test is T4, hMC3-R (human, UniProt P41968 1-323).
T4 construct: whole, on cells; Assayed as membranes of CHO-K1 cells expressing the receptor; also called hMC-R receptor subtype 3; melacortin-3 (MC3-R)
T4 sequence (P41968 whole entry): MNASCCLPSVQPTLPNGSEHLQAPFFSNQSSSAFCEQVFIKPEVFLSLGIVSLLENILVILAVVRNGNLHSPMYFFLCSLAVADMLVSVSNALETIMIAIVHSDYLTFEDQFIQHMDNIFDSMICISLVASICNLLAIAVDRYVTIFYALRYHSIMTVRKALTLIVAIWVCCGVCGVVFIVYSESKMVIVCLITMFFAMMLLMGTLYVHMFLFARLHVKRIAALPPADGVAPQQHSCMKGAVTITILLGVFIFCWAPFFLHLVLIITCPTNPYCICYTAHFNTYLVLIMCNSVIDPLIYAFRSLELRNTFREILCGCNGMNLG
Described as above. The method, then: as §1, §2
The molecule Ac-[Nle]C[dTle]H[dF]RWC-NH2 (disulfide 2-8) [Ac-Nle-c(Cys-D-Tle-His-D-Phe-Arg-Trp-Cys)-NH2] returned a Ki of 85.8 nM.
Still for that read-out and setting: with Ac-RDH[dF]RWAK-NH2 (lactam 2-8) [Ac-Arg-c(Asp-His-D-Phe-Arg-Trp-Ala-Lys)-NH2] the figure was 20.7 nM; with Ac-[Nle]DH[dF]RW[GABA]K-NH2 (lactam 2-8) [Ac-Nle-c(Asp-His-D-Phe-Arg-Trp-Gaba-Lys)-NH2], 9.89 nM.
Same read-out and setting: then B1, with 9320 nM; and B2, with 228 nM.
Same read-out and setting: then B3, with 93.5 nM.
In the case of Ac-[Nle]C[dA]H[dF]RW[GABA]C-NH2 (disulfide 2-9) [Ac-Nle-c(Cys-D-Ala-His-D-Phe-Arg-Trp-Gaba-Cys)-NH2], the inhibition constant Ki was 184 nM and 169 nM.
Same read-out and setting: then Ac-[Nle]C[dA]H[dF]RW[βAla]C-NH2 (disulfide 2-9) [Ac-Nle-c(Cys-D-Ala-His-D-Phe-Arg-Trp-β-Ala-Cys)-NH2], with 287 nM and 227 nM; and Ac-[Chg]DH[dF]RW[GABA]K-NH2 (lactam 2-8) [Ac-Chg-c(Asp-His-D-Phe-Arg-Trp-Gaba-Lys)-NH2], with 223 nM; and Ac-[dChg]DH[dF]RW[GABA]K-NH2 (lactam 2-8) [Ac-D-Chg-c(Asp-His-D-Phe-Arg-Trp-Gaba-Lys)-NH2], with 14.5 nM.

Values taken from US20120135923A1 (IPSEN PHARMA S A S, published 2012).
